Like-named read-outs stand apart in the source and are kept apart here.
How the values were obtained:
AM14 B cells = assay: AM14 proliferation assay; type: cell-based, mouse; details: for inhibition of DNA immune complex (PL2-3) dependent proliferation of AM14 B cells: thymidine incorporation
Experimental: AM14 proliferation assay: Purified AM14 B cells were preincubated with RAGE-Fc or control human IgG1 for 30 min at 37° C., and stimulated with 0.1 μg/ml of PL2-3 for 24 h at 37° C. Cells were then pulsed with [^3H]thymidine for 6 h.

[1] = system: CpG2216+thymus HMG1 induced IFN-a release (TLR9 signaling); assay: Inhibition of HMG1 mediated enhancement of TLR9 signaling, CpG2216 + thymus HMG1 in bone marrow cells; type: cell-based; details: mouse bone marrow cells
Experimental: HMGB1+TLR Ligand: Freshly isolated bone marrow cells were stimulated with TLR ligands (TLR3:PolyIC@5 μg/mL; TLR4:LPS@2.5 ng/mL; TLR5:flagellin@0.25 μg/mL; TLR7:polyU@4 μg/mL or R837@5 μg/mL; TLR9:CpG2216@1 μM) with or without presence of thymus HMGB1 (10 μg/mL) for 24 hr. Cytokines in the supernatant were measured by ELISA.
Inhibition of HMG1 Mediated Enhancement of TLR Signaling: Freshly isolated bone marrow cells were stimulated with TLR9 ligand CpG2216 (0.3 μM) and thymus HMGB1 (10 μg/mL) in the presence of different concentration of the anti-HMGB1 mAb E11 or control human IgG for 24 hr and IFN-a in the supernatant was measured by ELISA. CpG2216, HMGB1 and nonstimulatory DNA were used alone or in combination as controls for the assay.

[2] = molecular target: T1, interaction of CpG and HMGB1 (Bos taurus, UniProt P10103); assay: CpG ELISA, HMGB1 binding to CpG
T1 construct: from tissue; host or cells: bovine thymus
T1 sequence (P10103 2-215 limits assumed): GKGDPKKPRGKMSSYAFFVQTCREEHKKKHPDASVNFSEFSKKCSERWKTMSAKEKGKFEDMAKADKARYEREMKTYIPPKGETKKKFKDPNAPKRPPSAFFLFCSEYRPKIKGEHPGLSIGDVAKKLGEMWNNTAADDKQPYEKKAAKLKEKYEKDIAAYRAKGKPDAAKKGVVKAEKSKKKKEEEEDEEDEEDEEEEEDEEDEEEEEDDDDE
Experimental: CpG ELISA: Proteins or peptides were diluted in PBS to the concentration of 5 μg/ml and coated onto plates at 4° C. o/n. Plates were blocked with 4% dry milk in PBS. Biotin labeled CpG-A alone or in complex with HMGB1 were incubated in the plates at 37° C. for 1 hr. and detected with HRP labeled strep-avidin.

[3] = system: HMG1 stimulated cytokine gene expression in mouse macrophages; assay: Taqman analysis of mouse macrophages (mMØ) stimulated with HMG1; type: cell-based; details: rHMG1
Experimental: Taqman Analysis of Mouse Macrophages (mMØ) Stimulated with HMG1: Mouse bone marrow was harvested by rinsing the femurs of normal C57BL/6 mice. The isolated bone marrow cells were then cultured in Dulbecco's modified Eagle's medium (DMEM) supplemented with 10% fetal bovine serum (FBS) and 50 ng/ml M-CSF for 24 h, nonadherent cells were collected and grown for 6 days in complete DMEM supplemented with 10% FBS and 50 ng/ml M-CSF in T-75 flasks (1×10^7 cells/15 ml/flask). On day 6, adherent cells were harvested and reseeded with 5 ng/ml MCSF in α-MEM containing 10% FBS in 96-well plates (1×10^5 cells/200 μl/well) overnight.
The culture medium was replaced with α-MEM and incubated for 2 hours before stimulation to starve cells. HMGB1 (recombinant CBP-HMGB1 fusion protein generated from E. coli at 10 μg/ml), mouse-RAGE-Fc or human-RAGE-Fc fusion protein were pre-mixed with various blocking reagents at 100 μg/ml in α-MEM for 20 min at RT, then 100 μl of the mixtures was added to the cells and incubated at 37° C. for 2 hours. The supernatant was then removed, and the RNA was extracted using Ambion's MagMAX™-96 Total RNA Isolation Kit. All of the recovered RNA were used in a reverse transcriptase (RT) reaction with SuperScript™ III and oligo(dT) primer (Invitrogen) for synthesis of cDNA. 1 μl or 2 μl of the resulting cDNA was used for real time quantitative PCR analysis (TaqMan) using ABI Prism 7700 or 7000.

mouse macrophages = assay: TNF-a induction in mouse macrophages; type: cell-based
Experimental: TNF-a Induction: To examine mRNA levels macrophages were derived from mouse bone marrow using M-CSF. Macrophages were then stimulated by LPS, E. coli produced recombinant HMGB1 or HMGB1 purified from bovine thymus for indicated length of time and mRNA is measured by Taqman. To examine protein levels thioglycant activated mouse peritoneal macrophages were stimulated with 10 μg/mL of HMGB1 purified from bovine thymus or recombinant HMGB1 generated from E. coli for 24 hr. Cytokines in the supernatant were measured by ELISA.

B1: A-box: synthesized HMGB1 A-box peptide (SEQ ID NO: 108), a known HMGB1 antagonist (peptide, listed as Homo sapiens)
chain: PRGKMSSYAFFVQTCREEHKKKHPDASVNFSEFSKKCSERWKTMSAKEKGKFEDMAKADKARYEREMKTYIPPKGET
effect on TLR2, TLR4 ligand induced proliferation or BCR mediated B cell activation (AM14 B cells): had no effect | inhibition of DNA immune complex (PL2-3) dependent proliferation of AM14 B cells (AM14 B cells; listed as A box antagonist): reduced proliferation | inhibition of DNA immune complex (PL2-3) dependent proliferation of AM14 B cells (AM14 B cells; listed as HMGB A box): markedly inhibited PL2-3-dependent proliferation of AM14 B cells | inhibition of IFN-a release induced by CpG + thymus HMG1 [1]: inhibit IFN-a release | inhibition of IFN-a release induced by CpG + thymus HMG1 ([1]; listed as HMGB1 A-box): did not show inhibition in this assay | inhibition of the interaction of CpG and HMGB1 [2]: inhibit the interaction of CpG and HMGB1 | inhibition of the interaction of CpG and HMGB1 ([2]; listed as A box HMGB1): prevented the binding of HMGB1 to CpG DNA

B2: mouse RAGE-Fc fusion protein: mouse RAGE-Fc fusion protein (protein)
chain: QNITARIGEPLVLSCKGAPKKPPQQLEWKLNTGRTEAWKVLSPQGGPWDSVARILPNGSLLLPATGIVDEGTFRCRATNRRGKEVKSNYRVRVYQIPGKPEIVDPASELTASVPNKVGTCVSEGSYPAGTLSWHLDGKLLIPDGKETLVKEETRRHPETGLFTLRSELTVIPTQGGTHPTFSCSFSLGLPRRRPLNTAPIQLRVREPGPPEGIQLLVEPEGGIVAPGGTVTLTCAISAQPPPQVHWIKDGAPLPLAPSPVLLLPEVGHEDEGTYSCVATHPSHGPQESPPVSIRVTETGDEGPAEGSVGESGLGTLALA
modifications: left off: a dimerising Fc or GST
inhibition of HMG1-induced IL-1β gene expression [3]: robustly inhibited | inhibition of HMG1-induced TNF-a gene expression [3]: robustly inhibited

B3: rHMG1: E. coli produced recombinant HMG1 (CBP fusion protein) (protein)
chain: MGKGDPKKPRGKMSSYAFFVQTCREEHKKKHPDASVNFSEFSKKCSERWKTMSAKEKGKFEDMAKADKARYEREMKTYIPPKGETKKKFKDPNAPKRPPSAFFLFCSEYRPKIKGEHPGLSIGDVAKKLGEMWNNTAADDKQPYEKKAAKLKEKYEKDIAAYRAKGKPDAAKKGVVKAEKSKKKKEEEEDEEDEEDEEEEEDEEDEDEEEDDDDE
modifications: left off: small tags and cut ends
induction of TNF-a mRNA levels (mouse macrophages; 2 hours): ~43 fold | increase in TNF-a protein levels (mouse macrophages; 24 hours, supernatant): ~10 fold
